The source of these data is article PMC5828221.

This experiment addresses purified recombinant histone H3 protein (Active Motif C110A), PARylated in vitro by PARP1 (UniProt P68431).

As to “human EZH2/EED/SUZ12/RbAp48/AEBP2 Complex (from UniProt Q15910 1-746; O75530 1-441; Q15022 1-739; Q09028 1-425; Q6ZN18 1-517)”, the decrease in H3K27me3 ELISA after in vitro methylation by the EZH2/PRC2 complex of PARylated against unmodified recombinant histone H3 (PARP1 removed beforehand) worked out at 30%.
